In PMC7327923:

How the values were obtained:
[1] = biological target: Dps protein from Thermoleptolyngbya sp. O-77 (TlDps1) (Thermoleptolyngbya sp. O-77); test: SEC-RALS; TlDps1 as isolated, 206 µg/mL; Superdex 200 Increase, 303 K, 10 mM Tris/HCl pH 8.0, 0.5 mL/min
[2] = biological target: Dps protein from Thermoleptolyngbya sp. O-77 (TlDps1) (Thermoleptolyngbya sp. O-77); test: native gel or EMSA; native PAGE, 5-20% gel; TlDps1 in 10 mM Tris/HCl pH 8.0, also after DNase I treatment
[3] = biological target: Dps protein from Thermoleptolyngbya sp. O-77 (TlDps1) (Thermoleptolyngbya sp. O-77); test: SDS/PAGE; 5-20% gel; sample buffer with 2% SDS and 14.4 mM 2-mercaptoethanol; incubated 10 min at 298, 323 or 348 K before loading
[4] = biological target: Dps protein from Thermoleptolyngbya sp. O-77 (TlDps1) (Thermoleptolyngbya sp. O-77); test: crystal structure; hanging drop, 293 K, TlDps1 4.0 mg/mL in 10 mM Tris/HCl pH 8.0 with 0.15 M cesium chloride and 18% PEG 3350; 2.9 Å; six subunits in the asymmetric unit

Measured: stoichiometry N

Dps protein from Thermoleptolyngbya sp. O-77 (TlDps1) (natural protein)
12: [1] | [2] | [3] | [4]
